Reference: patent US20180155451A1 (published 2018)

T1: FcγRIIa R (human, UniProt P12318 34-217)
T1 construct: extracellular domain; Soluble extracellular domain with C-terminal His tag, expressed in FreeStyle293 cells; also called FcgRIIa R; FcγRIIa type R; not shown: His tag attached to the C terminus
T1 sequence (looked up): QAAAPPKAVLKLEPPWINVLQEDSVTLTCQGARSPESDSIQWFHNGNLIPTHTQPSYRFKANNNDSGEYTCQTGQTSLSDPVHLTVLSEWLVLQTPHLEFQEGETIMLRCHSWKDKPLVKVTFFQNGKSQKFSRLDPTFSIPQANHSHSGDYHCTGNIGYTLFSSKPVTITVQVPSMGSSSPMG


Target: T1, FcγRIIa R
Assay: SPR (Biacore), antibody captured via antigen peptide, FcγRIIa R as analyte; homodimerized antibody
Method: Analysis of interaction between objective antibody and the FcγR was carried out using Biacore T100 (GE Healthcare). HBS-EP+ (GE Healthcare) was used as the running buffer, and the measurement temperature was set to 25° C. Chips produced by immobilizing the antigen peptide by the amine coupling method to a Series S Sencor Chip CM5 (GE Healthcare), or alternatively, chips produced by allowing preliminarily biotinylated antigen peptides to interact with and immobilize onto a Series S Sensor Chip SA (certified) (GE Healthcare) were used. Antibodies of interest were captured onto an antigen peptide-immobilized chip, and allowed to interact to each FcγR diluted with running buffer. To regenerate and repeatedly use the chip, the antibodies captured on the chip were washed off by reacting 10 mM glycine-HCl, pH 1.5.

Ho/Con_2aR | Binder
142 % of control (GpH7-B3/GpL16-k0 = 100) | GpH7-B3 variant S239_09D/GpL16-k0 (antibody, human IgG1, kappa, homodimerized; mutation in both H chains; also called Ho Ab; GpH7-B3-06-09D/GpL16-k0) heavy: not shown light: DIVMTQSPLSLPVTPGEPASISCQASESLVHSNRNTYLHWYLQKPGQSPQLLIYKVSNRFSGVPDRFSGSGSGTDFTLKISRVEAEDVGVYYCSQNTHVPPTFGQGTKVEIERTVAAPSVFIFPPSDEQLKSGTASVVCLLNNFYPREAKVQWKVDNALQSGNSQESVTEQDSKDSTYSLSSTLTLSKADYEKHKVYACEVTHQGLSSPVTKSFNRGEC
107 % of control (GpH7-B3/GpL16-k0 = 100) | GpH7-B3 variant T335_06M/GpL16-k0 (antibody, human IgG1, kappa, homodimerized; mutation in both H chains; also called Ho Ab) heavy: not shown light: DIVMTQSPLSLPVTPGEPASISCQASESLVHSNRNTYLHWYLQKPGQSPQLLIYKVSNRFSGVPDRFSGSGSGTDFTLKISRVEAEDVGVYYCSQNTHVPPTFGQGTKVEIERTVAAPSVFIFPPSDEQLKSGTASVVCLLNNFYPREAKVQWKVDNALQSGNSQESVTEQDSKDSTYSLSSTLTLSKADYEKHKVYACEVTHQGLSSPVTKSFNRGEC
116 % of control (GpH7-B3/GpL16-k0 = 100) | GpH7-B3 variant S267_01G/GpL16-k0 (antibody, human IgG1, kappa, homodimerized; mutation in both H chains; also called Ho Ab) heavy: not shown light: DIVMTQSPLSLPVTPGEPASISCQASESLVHSNRNTYLHWYLQKPGQSPQLLIYKVSNRFSGVPDRFSGSGSGTDFTLKISRVEAEDVGVYYCSQNTHVPPTFGQGTKVEIERTVAAPSVFIFPPSDEQLKSGTASVVCLLNNFYPREAKVQWKVDNALQSGNSQESVTEQDSKDSTYSLSSTLTLSKADYEKHKVYACEVTHQGLSSPVTKSFNRGEC
113 % of control (GpH7-B3/GpL16-k0 = 100) | GpH7-B3 variant S267_07I/GpL16-k0 (antibody, human IgG1, kappa, homodimerized; mutation in both H chains; also called Ho Ab) heavy: not shown light: DIVMTQSPLSLPVTPGEPASISCQASESLVHSNRNTYLHWYLQKPGQSPQLLIYKVSNRFSGVPDRFSGSGSGTDFTLKISRVEAEDVGVYYCSQNTHVPPTFGQGTKVEIERTVAAPSVFIFPPSDEQLKSGTASVVCLLNNFYPREAKVQWKVDNALQSGNSQESVTEQDSKDSTYSLSSTLTLSKADYEKHKVYACEVTHQGLSSPVTKSFNRGEC
108 % of control (GpH7-B3/GpL16-k0 = 100) | GpH7-B3 variant T335_04F/GpL16-k0 (antibody, human IgG1, kappa, homodimerized; mutation in both H chains; also called Ho Ab) heavy: not shown light: DIVMTQSPLSLPVTPGEPASISCQASESLVHSNRNTYLHWYLQKPGQSPQLLIYKVSNRFSGVPDRFSGSGSGTDFTLKISRVEAEDVGVYYCSQNTHVPPTFGQGTKVEIERTVAAPSVFIFPPSDEQLKSGTASVVCLLNNFYPREAKVQWKVDNALQSGNSQESVTEQDSKDSTYSLSSTLTLSKADYEKHKVYACEVTHQGLSSPVTKSFNRGEC

Continued, binder first:

Binder | Ho/Con_2aR
GpH7-B3 variant T335_09D/GpL16-k0 (antibody, human IgG1, kappa, homodimerized; mutation in both H chains; also called Ho Ab) heavy: not shown light: DIVMTQSPLSLPVTPGEPASISCQASESLVHSNRNTYLHWYLQKPGQSPQLLIYKVSNRFSGVPDRFSGSGSGTDFTLKISRVEAEDVGVYYCSQNTHVPPTFGQGTKVEIERTVAAPSVFIFPPSDEQLKSGTASVVCLLNNFYPREAKVQWKVDNALQSGNSQESVTEQDSKDSTYSLSSTLTLSKADYEKHKVYACEVTHQGLSSPVTKSFNRGEC | 113 % of control (GpH7-B3/GpL16-k0 = 100)
GpH7-B3 variant T335_08L/GpL16-k0 (antibody, human IgG1, kappa, homodimerized; mutation in both H chains; also called Ho Ab) heavy: not shown light: DIVMTQSPLSLPVTPGEPASISCQASESLVHSNRNTYLHWYLQKPGQSPQLLIYKVSNRFSGVPDRFSGSGSGTDFTLKISRVEAEDVGVYYCSQNTHVPPTFGQGTKVEIERTVAAPSVFIFPPSDEQLKSGTASVVCLLNNFYPREAKVQWKVDNALQSGNSQESVTEQDSKDSTYSLSSTLTLSKADYEKHKVYACEVTHQGLSSPVTKSFNRGEC | 108 % of control (GpH7-B3/GpL16-k0 = 100)
GpH7-B3 variant S337_14T/GpL16-k0 (antibody, human IgG1, kappa, homodimerized; mutation in both H chains; also called Ho Ab) heavy: not shown light: DIVMTQSPLSLPVTPGEPASISCQASESLVHSNRNTYLHWYLQKPGQSPQLLIYKVSNRFSGVPDRFSGSGSGTDFTLKISRVEAEDVGVYYCSQNTHVPPTFGQGTKVEIERTVAAPSVFIFPPSDEQLKSGTASVVCLLNNFYPREAKVQWKVDNALQSGNSQESVTEQDSKDSTYSLSSTLTLSKADYEKHKVYACEVTHQGLSSPVTKSFNRGEC | 110 % of control (GpH7-B3/GpL16-k0 = 100)
GpH7-B3 variant S267_02A/GpL16-k0 (antibody, human IgG1, kappa, homodimerized; mutation in both H chains; also called Ho Ab) heavy: not shown light: DIVMTQSPLSLPVTPGEPASISCQASESLVHSNRNTYLHWYLQKPGQSPQLLIYKVSNRFSGVPDRFSGSGSGTDFTLKISRVEAEDVGVYYCSQNTHVPPTFGQGTKVEIERTVAAPSVFIFPPSDEQLKSGTASVVCLLNNFYPREAKVQWKVDNALQSGNSQESVTEQDSKDSTYSLSSTLTLSKADYEKHKVYACEVTHQGLSSPVTKSFNRGEC | 160 % of control (GpH7-B3/GpL16-k0 = 100)
